Tested on: dXR (PTBP1 experiment; KRAB not stated in the excerpt) (synthetic construct)
Assay: cell_activity
Conditions: mouse astrocytes, day 11

Row | Sequence | activity (PTBP1/total protein relative to NT) | activity (PTBP1/total protein relative to NT) (no clear repression)
1 | ACAGCAUCGUCCCAGACAUA / ACAGCATCGTCCCAGACATA / TATGTCTGGGACGATGCTGT [gRNA spacer 28.16 ; PTBP1 target 28.16] | 0.464 | –
2 | CAGCGGGGAUCCGACGAGCU / CAGCGGGGATCCGACGAGCT / AGCTCGTCGGATCCCCGCTG [gRNA spacer 28.10 ; PTBP1 target 28.10] | – | 0.945
